From paper PMC8053096 (Nucleic Acids Research, 2021) come the findings set out here.

This data set concerns the molecule itself. In words: SEC.

B1: full-length Escherichia coli Lhr (enzyme, Escherichia coli K-12 MG1655)
chain: SEFELRRQACMADNPDPSSLLPDVFSPATRDWFLRAFKQPTAVQPQTWHVAARSEHALVIAPTGSGKTLAAFLYALDRLFREGGEDTREAHKRKTSRILYISPIKALGTDVQRNLQIPLKGIADERRRRGETEVNLRVGIRTGDTPAQERSKLTRNPPDILITTPESLYLMLTSRARETLRGVETVIIDEVHAVAGSKRGAHLALSLERLDALLHTSAQRIGLSATVRSASDVAAFLGGDRPVTVVNPPAMRHPQIRIVVPVANMDDVSSVASGTGEDSHAGREGSIWPYIETGILDEVLRHRSTIVFTNSRGLAEKLTARLNELYAARLQRSPSIAVDAAHFESTSGATSNRVQSSDVFIARSHHGSVSKEQRAITEQALKSGELRCVVATSSLELGIDMGAVDLVIQVATPLSVASGLQRIGRAGHQVGGVSKGLFFPRTRRDLVDSAVIVECMFAGRLENLTPPHNPLDVLAQQTVAAAAMDALQVDEWYSRVRRAAPWKDLPRRVFDATLDMLSGRYPSGDFSAFRPKLVWNRETGILTARPGAQLLAVTSGGTIPDRGMYSVLLPEGEEKAGSRRVGELDEEMVYESRVNDIITLGATSWRIQQITRDQVIVTPAPGRSARLPFWRGEGNGRPAELGEMIGDFLHLLADGAFFSGTIPPWLAEENTIANIQGLIEEQRNATGIVPGSRHLVLERCRDEIGDWRIILHSPYGRRVHEPWAVAIAGRIHALWGADASVVASDDGIVARIPDTDGKLPDAAIFLFEPEKLLQIVREAVGSSALFAARFRECAARALLMPGRTPGHRTPLWQQRLRASQLLEIAQGYPDFPVILETLRECLQDVYDLPALERLMRRLNGGEIQISDVTTTTPSPFATSLLFGYVAEFMYQSDAPLAERRASVLSLDSELLRNLLGQVDPGELLDPQVIRQVEEELQRLAPGRRAKGEEGLFDLLRELGPMTVEDLAQRHTGSSEEVASYLENLLAVKRIFPAMISGQERLACMDDAARLRDALGVRLPESLPEIYLHRVSYPLRDLFLRYLRAHALVTAEQLAHEFSLGIAIVEEQLQQLREQGLVMNLQQDIWVSDEVFRRLRLRSLQAAREATRPVAATTYARLLLERQGVLPATDGSPALFASTSPGVYEGVDGVMRVIEQLAGVGLPASLWESQILPARVRDYSSEMLDELLATGAVIWSGQKKLGEDDGLVALHLQEYAAESFTPAEADQANRSALQQAIVAVLADGGAWFAQQISQRIRDKIGESVDLSALQEALWALVWQGVITSDIWAPLRALTRSSSNARTSTRRSHRARRGRPVYAQPVSPRVSYNTPNLAGRWSLLQVEPLNDTERMLALAENMLDRYGIISRQAVIAENIPGGFPSMQTLCRSMEDSGRIMRGRFVEGLGGAQFAERLTIDRLRDLATQATQTRHYTPVALSANDPANVWGNLLPWPAHPATLVPTRRAGALVVVSGGKLLLYLAQGGKKMLVWQEKEELLAPEVFHALTTALRREPRLRFTLTEVNDLPVRQTPMFTLLREAGFSSSPQGLDWG
With B1, the binding result is recorded as “binds”.

B2: MsmLhr C-terminal domain, MsmLhr-(863-1507) (domain or fragment, Mycobacterium smegmatis, UniProt A0QT91 863-1507, looked up)
chain: SPLAERRAAALALDTVLLSELLGRVELRELLDPAVVASTSAQLQHLTPERAARDAEGVADLLRLLGPLTEADIAQRCTADNIGAWLDGLHAAKRALPVTYAGQTWWAAVEDIGLLRDGIGVPVPVGVPAAFTESASDPLGDLIGRYARTRGPFTTEQTAARFGLGVRVASDVLSRMAVDGRLIRGEFAADLSGEQWCDAQVLKILRRRSLAALRAQVEPVSTDAYARFLPSWQHVGSTNTTGIDGLATVIEQLAGVPIPASAVESLVFPQRVRDYQPAMLDELLASGEVMWSGAGQIGNGDGWVAFHLADTAPLTLTHGAEIEFTDTHRVILETLGHGGAYFFRQLTDGTVEGTAGQELKQALWELIWAGWVTGDTFAPVRAVLSGPRRSGAPAHRQRQRPPRLSRYSVAHAQTRGTDPTVSGRWSALPAAEPDSTVRAHFQAELLLGRHGVLTKGAVGAEGVPGGFATLYKVLSTFEDAGRCQRGYFVESLGGAQFAVASTVDRLRSYLDNVDPERPEYHAVVLAATDPANPYGAALGWPTDSEAHRPGRKAGALVALVDGRLVWFLERGGRSLLSFGADADAQRAAAGALTDLVSAGRIPSLLVERINGVAVLDPDVDAERAVVQDALLGAGLSRTPRGLRLR
Regarding B2, the binding result is “binds”.
